# Measured values reported in the Immune Epitope Database (IEDB).
# pIC50, pKd: −log10 of the molar value.
# Assays:
# HLA-A*01:01 = assay: IEDB peptide-MHC binding, purified MHC/direct/fluorescence; filed as Kd, often an IC50 or EC50 that approximates it; ≥ and ≤ were set here for values at or beyond the usual limits of such assays
# HLA-A*02:01 = assay: as above; settings: source organism: Mycobacterium tuberculosis
# HLA-A*11:01 = assay: as above
# HLA-A*31:01 = assay: as above
# HLA-B*07:02 = assay: as above; settings: source organism: Mycobacterium tuberculosis
# HLA-B*15:01 = assay: as above
# HLA-B*15:17 = assay: as above
# HLA-B*18:01 [1] = assay: as above
# HLA-B*27:05 = assay: as above
# HLA-B*40:01 = assay: as above
# HLA-B*46:01 = assay: as above
# HLA-B*48:01 = assay: as above
# HLA-B*57:01 = assay: as above
# HLA-B*58:01 = assay: as above
# HLA-A*26:02 = assay: IEDB peptide-MHC binding, purified MHC/competitive/fluorescence; filed as Kd, often an IC50 or EC50 that approximates it; ≥ and ≤ were set here for values at or beyond the usual limits of such assays; settings: source organism: Mycobacterium tuberculosis variant bovis BCG str. Pasteur 1173P2
# HLA-A*26:03 = assay: as above; settings: source organism: Mycobacterium tuberculosis variant bovis BCG str. Pasteur 1173P2
# HLA-A*68:02 = assay: as above; settings: source organism: Mycobacterium tuberculosis variant bovis BCG str. Pasteur 1173P2
# HLA-A*69:01 [2] = assay: as above; settings: source organism: Mycobacterium tuberculosis variant bovis BCG str. Pasteur 1173P2
# HLA-B*53:01 = assay: IEDB peptide-MHC binding, purified MHC/competitive/fluorescence; ≥ and ≤ were set here for values at or beyond the usual limits of such assays; settings: source organism: human gammaherpesvirus 4
# HLA-B*18:01 [3] = assay: IEDB peptide-MHC binding, purified MHC/competitive/fluorescence; filed as Kd, often an IC50 or EC50 that approximates it; ≥ and ≤ were set here for values at or beyond the usual limits of such assays; settings: source organism: Human herpesvirus 4 strain B95-8
# HLA-A*03:01 = assay: IEDB peptide-MHC binding, purified MHC/direct/fluorescence; filed as Kd, often an IC50 or EC50 that approximates it; ≥ and ≤ were set here for values at or beyond the usual limits of such assays; settings: source organism: Influenza A virus (A/whooper swan/Mongolia/6/05(H5N1))
# HLA-A*26:01 = assay: as above; settings: source organism: Influenza A virus(A/swine/Shandong/fZC/2003(H9N2))
# HLA-A*69:01 [4] = assay: as above; settings: source organism: Influenza A virus (A/whooper swan/Mongolia/6/05(H5N1))
# HLA-A*80:01 = assay: as above; settings: source organism: Influenza A virus (A/whooper swan/Mongolia/6/05(H5N1))
# HLA-C*05:01 = assay: as above; settings: source organism: Influenza A virus (A/Fort Monmouth/1/1947-mouse adapted(H1N1))
# HLA-A*02:03 = assay: IEDB peptide-MHC binding, purified MHC/competitive/fluorescence; filed as Kd, often an IC50 or EC50 that approximates it; ≥ and ≤ were set here for values at or beyond the usual limits of such assays; settings: source organism: Influenza A virus (A/Fort Monmouth/1/1947-mouse adapted(H1N1))
# [5] = source organism: Mycobacterium tuberculosis
# [6] = source organism: Influenza A virus (A/whooper swan/Mongolia/6/05(H5N1))
sequence,measurement,setting,value
QVFKGVVIR,pKd,HLA-A*01:01; [5],≤ 4.70
same,pKd,HLA-A*02:01,≤ 4.70
same,pKd,HLA-A*11:01; [5],6.16
same,pKd,HLA-A*31:01; [5],7.00
same,pKd,HLA-B*07:02,≤ 4.70
same,pKd,HLA-B*15:01; [5],≤ 4.70
same,pKd,HLA-B*15:17; [5],≤ 4.70
same,pKd,HLA-B*18:01 [1]; [5],≤ 4.70
same,pKd,HLA-B*27:05; [5],≤ 4.70
same,pKd,HLA-B*40:01; [5],≤ 4.70
same,pKd,HLA-B*46:01; [5],≤ 4.70
same,pKd,HLA-B*48:01; [5],≤ 4.70
same,pKd,HLA-B*57:01; [5],≤ 4.70
same,pKd,HLA-B*58:01; source organism: Mycobacterium tuberculosis str. Haarlem,≤ 4.70
same,pKd,HLA-A*26:02,≤ 4.70
same,pKd,HLA-A*26:03,≤ 4.70
same,pKd,HLA-A*68:02,5.75
same,pKd,HLA-A*69:01 [2],≤ 4.70
LASAMRMLW,pIC50,HLA-B*53:01,7.11
same,pKd,HLA-B*18:01 [3],5.64
SSDDFALIV,pKd,HLA-A*01:01; [6],6.95
same,pKd,HLA-A*03:01,≤ 4.70
same,pKd,HLA-A*11:01; [6],≤ 4.70
same,pKd,HLA-A*26:01,≤ 4.70
same,pKd,HLA-A*31:01; [6],≤ 4.70
same,pKd,HLA-A*69:01 [4],7.73
same,pKd,HLA-A*80:01,6.65
same,pKd,HLA-B*15:01; [6],≤ 4.70
same,pKd,HLA-B*15:17; [6],6.64
same,pKd,HLA-B*18:01 [1]; [6],≤ 4.70
same,pKd,HLA-B*27:05; [6],≤ 4.70
same,pKd,HLA-B*40:01; [6],≤ 4.70
same,pKd,HLA-B*46:01; [6],≤ 4.70
same,pKd,HLA-B*48:01; [6],≤ 4.70
same,pKd,HLA-B*57:01; [6],≤ 4.70
same,pKd,HLA-B*58:01; [6],≤ 4.70
same,pKd,HLA-C*05:01,7.80
same,pKd,HLA-A*02:03,≤ 4.70
